The labels stand for the following.
B1: H4xH9045P (antibody, V domains shown)
VH: EVQLVESGGGLVQPGRSLRLSCAASGFTFDDYDMHWVRQAPGKGLEWVSGSGWNRGSLGYADSVKGRFTISRDNAKKSLYLQMNSVRVEDTALYYCAKGFVVVSAAYFDYWGQGTLVTVSS
VL: not shown
notes: Human IgG4 Fc with 2 or more amino acid changes (H4xH); also called H4xH9045P2
B2: H4xH9037P (antibody, V domains shown)
VH: EVQLVESGGGLVQPGGSLRLSCAASGFTFDDYAMHWVRQAPGKGLEWVSGIGWSSGSIGYADSVKGRFTISRDNAKNSLYLQMDSLRPEDSALYYCAKAYTFMITLYFDYWGQGTLVTVSS
VL: not shown
notes: Human IgG4 Fc with 2 or more amino acid changes (H4xH); also called H4xH9037P2
B3: H4xH9120P2 (antibody, V domains shown)
VH: QVQLVQSGAEVKRPGASVKVSCKASGYTFTSFYMYWVRQAPGQGLEWMGIINPSDGSTSNAQKFQGRVTMTRDTSTSTVYMELSSLRSEDTAVYYCARRVAGDIFDIWGQGTMVTVSS
VL: not shown
notes: Human IgG4 Fc with 2 or more amino acid changes (H4xH)
B4: H4xH9048P2 (antibody, V domains shown)
VH: QVQLVQSGAEVKRPGSSVKVSCKVSGVTFRNFAIIWVRQAPGQGLEWMGGIIPFFSAANYAQSFQGRVTITPDESTSTAFMELASLRSEDTAVYYCAREGERGHTYGFDYWGQGTLVTVSS
VL: not shown
notes: as for B3
B5: H4xH9128P2 (antibody, V domains shown)
VH: QVQLQESGPGLVKPSETLSLTCTVSGGSISSYHWNWIRQSPGKGLEWIGYIYYIGSTDYNPSLESRVTISVDTSKNQFSLKLSSVTAADTAVYYCARVPVGATGASDVWGQGTMVTVSS
VL: not shown
notes: as for B3
B6: H4xH9135P2 (antibody, V domains shown)
VH: EVQLVESGGSVVRPGGSLRLSCVVSGFTFEDYGLSWVRQIPGKGLEWVSGISWTGGNTGYADSVKGRFTISRDNAKNSLYLQMNSLRAEDTALYHCTRDRQWLMQWYFDYWGQGTLVTVSS
VL: not shown
notes: as for B3
B7: H4xH9119P2 (antibody, V domains shown)
VH: EVQLVESGGGLVQPGRSLRLSCAASGFTFEDYAMHWVRQAPGKGLEWVSGIGWSNVKIGYADSVKGRFTISRDNVRNSLYLQMNSLRTEDTAFYYCVKAYTSMLTLYFDYWGQGTLVTVSS
VL: not shown
notes: as for B3

In the first test the target is T1, recombinant cynomolgus monkey PD-1 expressed with a C-terminal myc-myc-hexahistidine tag (cynomolgus monkey (Macaca fascicularis)).
T1 construct: monomeric; also called MfPD-1-MMH
T1 chain: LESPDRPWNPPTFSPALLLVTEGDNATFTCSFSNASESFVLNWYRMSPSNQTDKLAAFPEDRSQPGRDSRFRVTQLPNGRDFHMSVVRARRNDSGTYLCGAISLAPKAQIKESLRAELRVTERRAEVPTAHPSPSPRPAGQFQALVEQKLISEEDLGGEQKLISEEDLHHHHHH
Put plainly: SPR, mAb captured, 25C. For orientation: In SPR one partner is held on a chip, and binding of the other changes the refractive index at the surface.
In the case of B1, the Kd worked out at 113 nM, the dissociation rate constant (koff) was 0.00705 s⁻¹, the on-rate constant (kon) amounted to 62500 M⁻¹ s⁻¹ and the t½ is 1.6 min.
In the case of B2, the dissociation constant Kd came out at 13.1 nM, the dissociation rate constant (koff) worked out at 0.000915 s⁻¹, the kon was determined as 69900 M⁻¹ s⁻¹ and the t½ was determined as 13 min.
Consider B3, for which the dissociation constant (Kd) is 34.1 nM, the off-rate constant (koff) was determined as 0.00108 s⁻¹, the on-rate (kon) was found to be 31700 M⁻¹ s⁻¹ and the t½ is 11 min.
The like results for B4 were, in that order, 7 nM, 0.000897 s⁻¹, 128000 M⁻¹ s⁻¹ and 13 min.
Regarding B5, the dissociation constant Kd came to 17.7 nM, the off-rate constant (koff) was found to be 0.000649 s⁻¹, the kon amounted to 36800 M⁻¹ s⁻¹ and the t½ worked out at 18 min.
The like results for B6 were, in that order, 10.6 nM, 0.00131 s⁻¹, 124000 M⁻¹ s⁻¹ and 8.8 min.
In the case of B7, the Kd came out at 22.2 nM, the koff turned out to be 0.00166 s⁻¹, the kon was found to be 75000 M⁻¹ s⁻¹ and the t½ turned out to be 6.9 min.

Another test deals with T2, human PD-1 dimer (human PD-1-mFc or human PD-1-hFc) (human, UniProt Q15116 25-170).
T2 construct: also called hPD-1-mFc; hPD1-hFc
T2 sequence (Q15116 25-170 C93S): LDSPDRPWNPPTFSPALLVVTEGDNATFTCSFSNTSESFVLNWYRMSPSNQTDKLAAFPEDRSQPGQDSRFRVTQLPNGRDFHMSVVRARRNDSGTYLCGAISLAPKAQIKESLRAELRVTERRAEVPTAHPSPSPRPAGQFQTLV
Put plainly: SPR, mAb captured, 25C.
Molecule B1 had a Kd of 1.75 nM, a koff of 0.00016 s⁻¹, an on-rate constant (kon) of 91300 M⁻¹ s⁻¹ and a t½ of 72 min.
B2 showed a Kd of 0.862 nM, a koff of 0.000129 s⁻¹, a kon of 150000 M⁻¹ s⁻¹ and a t½ of 89 min.
The like results for B3 were, in that order, 1.82 nM, 0.000119 s⁻¹, 65200 M⁻¹ s⁻¹ and 97 min.
For B4, in that order: 0.798 nM, 0.000188 s⁻¹, 236000 M⁻¹ s⁻¹ and 61 min.
For the molecule B5, the equilibrium dissociation constant (Kd) was 1.59 nM, the koff is 0.000133 s⁻¹, the kon came to 83700 M⁻¹ s⁻¹ and the t½ was 87 min.
In the case of B6, the dissociation constant (Kd) is 0.651 nM, the off-rate (koff) was determined as 0.000138 s⁻¹, the kon was 212000 M⁻¹ s⁻¹ and the t½ turned out to be 84 min.
B7: the equilibrium dissociation constant (Kd) came to 0.992 nM, the off-rate constant (koff) came to 0.000162 s⁻¹, the association rate constant (kon) worked out at 163000 M⁻¹ s⁻¹ and the t½ was 71 min.

Another test addresses T3, recombinant human PD-1 expressed with a C-terminal myc-myc-hexahistidine tag (human).
T3 construct: monomeric; also called hPD-1-MMH; human PD-1-MMH
Put plainly: SPR, mAb captured, 37C.
For the molecule B1, the Kd was determined as 662 nM, the off-rate constant (koff) turned out to be 0.0532 s⁻¹, the kon was 80400 M⁻¹ s⁻¹ and the t½ was 0.2 min.
Consider B2, for which the dissociation constant Kd turned out to be 29.5 nM, the koff came to 0.00668 s⁻¹, the on-rate constant (kon) is 226000 M⁻¹ s⁻¹ and the t½ was determined as 1.7 min.
For B3, in that order: 102 nM, 0.00701 s⁻¹, 68800 M⁻¹ s⁻¹ and 1.6 min.
Regarding B4, the Kd is 23.2 nM, the koff turned out to be 0.0086 s⁻¹, the kon worked out at 370000 M⁻¹ s⁻¹ and the t½ was 1.3 min.
As to B5, the dissociation constant (Kd) came to 42 nM, the koff was 0.00436 s⁻¹, the kon was found to be 104000 M⁻¹ s⁻¹ and the t½ stood at 2.6 min.
For B6, in that order: 26.6 nM, 0.0111 s⁻¹, 418000 M⁻¹ s⁻¹ and 1 min.
The like results for B7 were, in that order, 43.5 nM, 0.0104 s⁻¹, 240000 M⁻¹ s⁻¹ and 1.1 min.

The next test has as its target T1, recombinant cynomolgus monkey PD-1 …. Put plainly: SPR, mAb captured, 37C.
In the case of B1, the Kd was 7540 nM, the koff stood at 0.105 s⁻¹, the association rate constant (kon) is 14000 M⁻¹ s⁻¹ and the t½ is 0.1 min.
For B2, in that order: 39.7 nM, 0.0088 s⁻¹, 222000 M⁻¹ s⁻¹ and 1.3 min.
Turning to B3, the Kd amounted to 107 nM, the off-rate constant (koff) worked out at 0.00748 s⁻¹, the kon amounted to 69800 M⁻¹ s⁻¹ and the t½ came out at 1.5 min.
For B4, in that order: 16.8 nM, 0.00697 s⁻¹, 415000 M⁻¹ s⁻¹ and 1.7 min.
For B5, the Kd came out at 46.1 nM, the off-rate (koff) was found to be 0.00418 s⁻¹, the kon turned out to be 90600 M⁻¹ s⁻¹ and the t½ turned out to be 2.8 min.
In the case of B6, the Kd stood at 28.9 nM, the off-rate (koff) was determined as 0.0134 s⁻¹, the on-rate constant (kon) amounted to 462000 M⁻¹ s⁻¹ and the t½ came to 0.9 min.
B7: the Kd came out at 51.4 nM, the koff turned out to be 0.0123 s⁻¹, the on-rate (kon) came out at 240000 M⁻¹ s⁻¹ and the t½ amounted to 0.9 min.

For another test, the target named is T2, human PD-1 dimer (human PD-1-mFc or …). Put plainly: SPR, mAb captured, 37C.
B1 yielded a Kd of 5.13 nM, a koff of 0.0011 s⁻¹, a kon of 214000 M⁻¹ s⁻¹ and a t½ of 11 min.
B2 showed an equilibrium dissociation constant (Kd) of 3.5 nM, a dissociation rate constant (koff) of 0.000921 s⁻¹, a kon of 263000 M⁻¹ s⁻¹ and a t½ of 13 min.
The molecule B3 displayed a dissociation constant (Kd) of 5.96 nM, an off-rate (koff) of 0.000482 s⁻¹, an association rate constant (kon) of 80800 M⁻¹ s⁻¹ and a t½ of 24 min.
B4: the affinity, expressed as Kd, was 3.05 nM; the koff worked out at 0.0011 s⁻¹; the kon was 361000 M⁻¹ s⁻¹; the t½ came to 10 min.
Molecule B5 gave a Kd of 3.68 nM, a dissociation rate constant (koff) of 0.000686 s⁻¹, a kon of 186000 M⁻¹ s⁻¹ and a t½ of 17 min.
B6 returned a Kd of 2.27 nM, an off-rate constant (koff) of 0.000702 s⁻¹, a kon of 310000 M⁻¹ s⁻¹ and a t½ of 16 min.
The like results for B7 were, in that order, 3.8 nM, 0.000909 s⁻¹, 240000 M⁻¹ s⁻¹ and 13 min.

As usually defined, the Kd is the free concentration of one partner at which half of the binding sites on the other are occupied at equilibrium, for simple one-to-one binding. For orientation: koff means the rate constant with which the complex falls apart. For orientation: kon means the rate constant with which the complex forms. For orientation: t½ means the time needed for the level to fall by half in the phase considered.

The values are drawn from patent US20150203579A1 (Regeneron, published 2015).
